The DeepSol protein solubility set

Experiment: soluble on expression in E. coli; label from the status in PepcDB or PDB records

Sequence | soluble on expression in E. coli
MGSDKIHHHHHHMQNPFTTTFSKTPEYTYIHTEKTEEILENFIYDNPSESVYKITGVRGSGKTVILAKVEEELRTNESRYINWLVFDVNPARDILGQIAAMLVKAGFGSQDKKTTGINLSATVMGTGGGIGYTAENNNNFFDIGVEVETMIQAAQKKGKKILIGIDEVSKSEEMIKFASEYGRWLRAGYPVYFVCTGLYENIQELSNVKNLTFFRRAATVKTEPLNMIRMTEMYKSKLDIDSNEAREMAKITKGYAYAFQELGVLYFKKKLDELLEDILPKLKAELFAYSYEKIWEEMTEMDRFLAGLLTEKEEYKREEVLKLMGEKSGSYSMYRDRLIKRGILNSRQGYISLALPYFGEYIKEYC | not soluble
MGSDKIHHHHHHMANSNMQATDAVAQDTASASGEFDALLNQAFRPKTTQAAKAVEAAVQTLAQQALANTITVSDDAYKSISAIIAQIDFKLTEQIKLILQHPDWQKLESSWRGMEHLVYNTETDEKLKIRFMNLSKDELRRNMKRYKGIAWDQSPMFKKLYEAEYGQLGGEPYGCIIADYYFDHTPPDVDLLGSIAKVAASAHAPFIAGASPSVLQMDSWQELANPRDLTKIVTQNLEYAPWNSLRASEDSRYIGLTMPRFLARLPYGAKTNPVDEFDFEEDADGSDHTKYVWSNAAYAMGVNINRSFKHYGWCTLIRGVESGGAVENLPCHTFPTDDGGVDMKCPTEIAISDRREAELAKNGFIPLIHRKNSDYAAFIGAQSLQKPQEYYDPDATANANLSARLPYLFACSRFAHFLKCIVRDKIGSFKEREDMQRWLNEWIMNYVDADPVNSSQETKARRPLAAAEVVVEEVEGNPGYYDAKFFLRPHFQLEGLTGSLRLVTKLPSVKQGNA | not soluble
MSLKVLLLDVDGTLLSFETHKVSQSSIDALKKVHDSGIKIVIATGRAASDLHEIDAVPYDGVIALNGAECVLRDGSVIRKVAIPAQDFRKSMELAREFDFAVALELNEGVFVNRLTPTVEQIAGIVEHPVPPVVDIEEMFERKECCQLCFYFDEEAEQKVMPLLSGLSATRWHPLFADVNVAGTSKATGLSLFADYYRVKVSEIMACGDGGNDIPMLKAAGIGVAMGNASEKVQSVADFVTDTVDNSGLYKALKHFGVIEGHHHHHH | soluble
MGSDKIHHHHHHMIELIATAESVEQAVELLATGVDTLYIGEETFGLRLPVSFTRDEQREIVKRAHEMGKQVLVAVNGIMHPEKMKLVPEYLTFLKEINVDKITLGDPGIVFIMQRDGLEIPYVYDGETLVTSSRQINFWSKRGAIGAVLAREVPFEEMVAMEENLAVPAEILVYGATCIHQSKRPLIQNYYNYTKNDKGVTKDEGLFISEPKKPETHYSIYEDSHGTHIFANNDVNLMNELTNLYDHHYRTWKLDGLYTPGENFVAIARLFAEAKAALEAGTWSEDQAAHATAEIEKLHPTGRGLDNGFFDLSADAIK | not soluble
METKTVAITMGDPAGIGPEIIVKALSEDGLNGAPLVVIGCLATLKRLQAKGITPNVELRAIERVAEARFAPGIIHVIDEPLAQPEALEAGKVQAQAGDLAYRCVKRATELALRGDVQAIATAPLNKEALHLAGHNYPGHTELLATLTHSRDYAMVLYTDKLKVIHVSTHIALRKFLDTLSTARVETVIGIADTFLKRVGYVKPRIAVAGVNPHAGENGLFGDEETRILTPAITDARAKGMDVYGPCPPDTVFLQAYEGQYDMVVAMYHDQGHIPLKLLGFYDGVNITAGLPFIRTSADHGTAFDIAWTGKAKSESMAVSIKLAMQLA | soluble
MAHHHHHHMADQIYHKLINENIKMLCNDLLPNEKKDEKKKEYYNNMNINCSSKCEELCNNINDRLQKIKDIVHLRSTKANGILIETLNYIKEYIKEIEKYIQIFNKLIYEENRAYLFIEEIFNTLENQNQNIQKIYNICSKNIVITKNNNELILKNPKACSSLSYEFVNNLMNSGQQKNNNNNNNKKEQIVQQHNIENQGANYLN | not soluble
MEEVYASELRGREPETVDTLFLDNTQGGVIGGINEKLTKLELLSMVKCGLTTLKGMPVLPALNYLDLSDNELGDDASFDVLIKCAPEIKKITLSGNRLTLDNVRTLKMLPNLMELDLSNNSSLGLLDDYRVKMFEMIPSLKILDGCDVDGEEVEEEFAAGEGAEDSDEGDSDEDGPGLSYLNKSQFSDDETDDYVVPEAGDAETRGAKRAASADCDEPEAKKSAE | soluble
MTDEKKDDRPVYQAACHCGTVRFELRLTDGLRTARRCNCSLCRMRGAVAVSANLGDITVTQGEEALTLYQFHTREAKHYFCSRCGIYTFHQRRSAPDQYGVNVACIEGMSPFDFADVPVSEGRVHPKDRVDGGVGVAGWLRYEGNPEWGQGLEHHHHHH | soluble
MGSDKIHHHHHHMDALEIHRFLKGKIRTALPVEKVDRETLSLLYTPGVADVARACAEDPEKTYVYTSRWNTVAVVSDGSAVLGLGNIGPYGALPVMEGKAFLFKAFADIDAFPICLSESEEEKIISIVKSLEPSFGGINLEDIGAPKCFRILQRLSEEMNIPVFHDDQQGTAVVVSAAFLNALKLTEKKIEEVKVVVNGIGAAGYNIVKFLLDLGVKNVVAVDRKGILNENDPETCLNEYHLEIARITNPERLSGDLETALEGADFFIGVSRGNILKPEWIKKMSRKPVIFALANPVPEIDPELAREAGAFIVATGRSDHPNQVNNLLAFPGIMKGAVEKRSKITKNMLLSAVEAIARSCEPEPERIIPEAFDMKVHLNVYTAVKGSA | not soluble
MVKSLQLAHQLKDKRILLIGGGEVGLTRLYKLMPTGCKLTLVSPDLHKSIIPKFGKFIQNKDQPDYREDAKRFINPNWDPTKNEIYEYIRSDFKDEYLDLENENDAWYIIMTCIPDHPESARIYHLCKERFGKQQLVNVADKPDLCDFYFGANLEIGDRLQILISTNGLSPRFGALVRDEIRNLFTQMGDLALEDAVVKLGELRRGIRLLAPDDKDVKYRMDWARRCTDLFGIQHCHNIDVKRLLDLFKVMFQEQNCSLQFPPRERLLSEYCSS | soluble
MGLVTSILGRREYRLLQNSVTKKHLCKFMGVEFDYNDLDEITEIRVGENIFDTFESYARFAMKDTMKSIFAECKAMKTCLARIEREKQTEASMNHKIRQCYITLRRLCQLYYKFYQDLEKLKIPEHAWNVPLVKKAEKSIVVLDHAIYKFKAKGNLDVKKFREEVSHQYNIIEEVLKQFKSMDEGEYVEMRMKEEMKTEEA | not soluble
MDIAQDWNGIPVPANPGNGMTWQLQDNVSDSFNYTSSEGNRPTAFTSKWKPSYINGWTGPGSTIFNAPQAWTNGSQLAIQAQPAGNGKSYNGIITSKNKIQYPVYMEIKAKIMDQVLANAFWTLTDDETQEIDIMEGYGSDRGGTWFAQRMHLSHHTFIRNPFTDYQPMGDATWYYNGGTPWRSAYHRYGCYWKDPFTLEYYIDGVKVRTVTRAEIDPNNHLGGTGLNQATNIIIDCENQTDWRPAATQEELADDSKNIFWVDWIRVYKPVAVSGGGNNSLEHHHHHH | soluble
MFIKGVILSSYGVNGYARVKSISNNFCDFINLKNNKVLLKKSNSSSVEVKVVDVNIKGNSLFLKFEEIDTPEAVRPLIGFELWVDDSLASSLKEGEYYLGKLIGYAIVNNNKKLGEVVAFFEYLNSVFLEVRVGIKFFFIPFLSIYIGDINTQEKTIELKVLDLLKLEHHHHHH | not soluble
MRCYAKIHSYQLLFVADVDYDCHHKDKFFRRHCVVAKILPRFDAVLFLDADTGVVNPSRKIEEFLKPGIDITFVNRFCNWEIASGFYLARNTPFAINLLNNFADYESKLPNSFHGTDNGAIHIFLAEKIFPQASIEIGICRRAYEKSTSVEDLILYEACIKALFGVVTDFGKIQILRKGTGWARDGWLTSMVWHPETDFMLHGWKTNALIPTPTDPLVAIEMSMSQWFNPLNGSIDLSKCNSHNSTWNYDARLLGNNEEIQKSLHRIQKENSILQVKAYSDFSKFISL | not soluble
VINQVESASKVIDWPLALKRSANKADLAKEMLLGLVESLPETQLSIREAIDVQDIAQIKRLVHKLNGACCYTGTPNLAKITIQLETQLKMGLSTEELEPEFLEFFEHIEQVLFAVPEALKEMSEN | not soluble
GGTSNEVAQFLSKENQVIVRMRGLPFTATAEEVVAFFGQHCPITGGKEGILFVTYPDGRPTGDAFVLFACEEYAQNALRKHKDLLGKRYIELFRSTAAEVQQVLNRFSSA | soluble
MLGSLAAEKRSVFQTSCCVRYKGCMLGVGPTVWGVVWGLGCTVEARGLRKRFGGRTAVAGVSFSVGDGERACIMGPNGSGKTTLLRMVSGVLRPSGGSVRVCGYDVWGDGWREARGLIGFAPQDPPMARRMTGAEYITVVGGLLGLSPGVARREARRVLEMLGFEDVLGRVVARLSGGQRRALGIALALASNPEVVVLDEPGSGLDVRARESLWASLRKAFKGRTVLFSSHDPQEAEAESDRVLIMHRGRLAAWGKPRELIQRYAPKPRVRVWADRAPDGLEPVHTGPGFSDYLIEAPGDVARIASAYSGAGILVERIEVLKPSLREVFFAVTGEEMD | soluble
MRKYTFKTQRPKIVVIGGGTGLPVVLNGLRKQAVDITAVVTVADDGGSSGIIRNYVNVVPPGDIRNVMVALSSWPDLYKDIFQYRFQGDDQFFAGHAIGNLIIAALTEMKSGVFDAVQELSNMMQVDGHVYPAANEALTLHGKFSDGTELVGEAEITAAHKSLERVWVTDKNGKEPQAVQPVIDAIMAADQIVLGPGSLFTSILPNLTIGNIGRAVCESDAEVVYICNIMTQKGETDNFSDADHVRVLNRHLGQNFINTVLVNTEKVPEDYMDFHKFNEVSKQVSHDFRGLREQNCRVISSNFLKLRDNGAFHDGDQVVAELMNLVGHSDVFRLEHHHHHH | soluble
MKNIIRTPETHPLTWRLRDDKQPVWLDEYRSKNGYEGARKALTGLSPDEIVNQVKDAGLKGRGGAGFSTGLKWSLMPKDESMNIRYLLCNADEMEPGTYKDRLLMEQLPHLLVEGMLISAFALKAYRGYIFLRGEYIEAAVNLRRAIAEATEAGLLGKNIMGTGFDFELFVHTGAGRYICGEETALINSLEGRRANPRSKPPFPATSGVWGKPTCVNNVETLCNVPAILANGVEWYQNISKSKDAGTKLMGFSGRVKNPGLWELPFGTTAREILEDYAGGMRDGLKFKAWQPGGAGTDFLTEAHLDLPMEFESIGKAGSRLGTALAMAVDHEINMVSLVRNLEEFFARESCGWCTPCRDGLPWSVKILRALERGEGQPGDIETLEQLCRFLGPGKTFCAHAPGAVEPLQSAIKYFREEFEAGIKQPFSNTHLINGIQPNLLKERWLEHHHHHH | not soluble
MDRVRNLLEQIQGRLDELNKAERKVAEVILLNPQMATRLSIAALAQAAKVSEPTVNRFCRSFSVSGYPELKLQLAQSLASGAAYVSRAVEADDNPEAYTQKIFGSAIASLDSACQQLDPALVSKSVDMLIQARQIHFFGLGASAPVALDAQHKFFRFNLAVTAHADVLMQRMIASVAHTGELFVIISYTGRTRELVEVARIARANGASVLGLTAAGSPLAQASTVSLNIPLPEDTDIYMPMTSRIIQLTVLDVLATGMTLRRGVDFQPHLRKIKESLNDSRYPIEDQG | not soluble
MNRKGYKSGFVSIIGRPNVGKSTFLNRIIGQKIAIMSDKPQTTRNKIQGVYTENDSQVIFIDTPGIHKPKHKLGDFMVKMAQTTLKEVDIVLFMVNAVEGFGRGEEFIIEKLKETKQPVFLVINKIDQVHPEQLLELIDQYRKLHDFAEIVPISALDGNNAEALIGTIKKYLPEGPQYYPDNQVTDHPERFIIAELIREKVLHLTREEVPHSVAVVIDAIQKREGGAVYINATIVVERPSQKGIIIGKQGKMLKEVGKRARFDIEALLGSKVFLEVWVKVQKDWRNKMSQLRDLGFREDEY | not soluble
